Target: VEE capsid protein (Venezuelan equine encephalitis virus, UniProt P09592 P09592:1-275)
Experiment: EMSA
Details: label: biotin

Chain of VEE capsid protein (P09592 1-275, one chain of several): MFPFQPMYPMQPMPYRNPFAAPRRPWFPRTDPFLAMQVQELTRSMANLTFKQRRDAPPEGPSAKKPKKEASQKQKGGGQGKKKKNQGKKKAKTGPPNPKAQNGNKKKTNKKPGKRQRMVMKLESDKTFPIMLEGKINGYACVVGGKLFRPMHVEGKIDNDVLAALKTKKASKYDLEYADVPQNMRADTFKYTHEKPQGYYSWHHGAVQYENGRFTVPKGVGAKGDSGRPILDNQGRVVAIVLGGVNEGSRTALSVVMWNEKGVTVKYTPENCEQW

GGUUGCGCCCACACGCAAACACCGCCCUUCGACAUGAGGCCCGGC (ssRNA) [KLG_M_45]: binds.

GGGAGCUCAGAAUAAACGCUCAAGGCCCUUGCGCCCACACGCAAGC (ssRNA) [KLG_5_46]: binds.

— US20060172925, “Thio-siRNA aptamers” (Board Of Regents, The University Of Texas System, published 2006)
